According to paper PMC2064262 (The Journal of Cell Biology, 2006):
One block for each binder: values may come before it.

Molecular target: N-syndecan ectodomain IgG fusion protein (UniProt P33671 45-387, glycosylated (proteoglycan fragment with heparan sulfate chains))
Assay: ELISA

N-syndecan ectodomain IgG fusion protein, sequence (P33671 45-387): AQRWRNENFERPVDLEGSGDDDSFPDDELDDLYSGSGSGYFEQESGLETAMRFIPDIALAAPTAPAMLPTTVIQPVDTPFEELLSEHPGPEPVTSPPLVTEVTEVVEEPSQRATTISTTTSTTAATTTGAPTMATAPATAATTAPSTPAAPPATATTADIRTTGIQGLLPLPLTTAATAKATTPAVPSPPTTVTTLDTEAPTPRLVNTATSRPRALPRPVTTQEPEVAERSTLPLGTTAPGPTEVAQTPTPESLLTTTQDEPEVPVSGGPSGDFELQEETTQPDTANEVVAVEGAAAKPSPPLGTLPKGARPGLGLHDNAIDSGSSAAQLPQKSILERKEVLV

Kd: 15 nM
B1: heparin-binding EGF-like growth factor (HB-EGF), human recombinant (ligand, UniProt Q99075 63-148, looked up)
chain: DLQEADLDLLRVTLSSKPQALATPNKEEHGKRKKKGKGLGKKRDPCLRKYKDFCIHGECKYVKELRAPSCICHPGYHGERCHGLSL

Kd: 12 nM
B2: heparin-binding growth-associated molecule (HB-GAM; pleiotrophin) (ligand, UniProt P63090 33-168, looked up)
chain: GKKEKPEKKVKKSDCGEWQWSVCVPTSGDCGLGTREGTRTGAECKQTMKTQRCKIPCNWKKQFGAECKYQFQAWGECDLNTALKTRTGSLKRALHNADCQKTVTISKPCGKLTKPKPQAESKKKKKEGKKQEKMLD
